Assay results published in US20100021473A1 (DOMANTIS, published 2010).

target: T1, CD56 immobilised on Biacore CM5 chip (UniProt P13591 20-718, limits assumed); assay: Biacore, CD56 immobilised
T1 construct: also called DOM14
Protocol: (§1) Anti-CD38, anti-CEA and anti-CD56 dAbs that were identified as FACS positive clones were in addition analysed by Biacore using the following procedure. The CM5 chip surface was activated by flushing 1:1 EDC/NHS (0.4M1-ethyl-3-(3-dimenthylaminopropyl)-carbodiimide in water; 0.1 M N-hydroxysuccinimide in water) at a flow rate of 5 uL/min for 10 minute contact time. CD38 was immobilised at 500 nM in Acetate buffer pH4 at 5 uL/min this was repeated until the RUs reached between 500 and 1000 (low density). CEA and CD56 were coupled in acetate buffer pH 4.5. Any excess reactive groups were deactivated by running 1M ethanolamine-HCl over the CM5 chip (again 5 uL/min for 7 mins). The affinities of the anti-CD38, anti-CEA and anti-CD56 dAbs were measured on the biacore as described above.

Row | Binder | Kd | binding result
1 | DOM14-23 (other, Anti-CD56 dAb) DIQMTQSPSSLSASVGDRVTITCRASQDIFPFLNWYQQKPGKAPELLIYRASILHSGVPSRFSGSGSGTDFTLTISSLQPEDFATYYCQQIARSPRTFGQGTKVEIKR | 100 to 200 nM | –
2 | DOM14-68 (other, Anti-CD56 dAb monomer) DIQMTQSPSSLSASVGDRVTITCRASQEISGELTWYQQKPGKAPKLLIYFSSILQSGVPSRFSGSGSGTDFTLTISSLQPEDFATYYCQQRKLRPYTFGQGTKVEIKR | – | no binding
3 | DOM14-62 (other, Anti-CD56 dAb monomer) DIQMTQSPSSLSASVGDRVTITCRASQNISYHLVWYQQKPGKAPKLLIYSSSNLQSGVPSRFSGSGSGTDFTLTISSLQPEDLATYYCQQLASWPHTLGQGTKVEIKR | – | no binding
4 | DOM14-63 (other, Anti-CD56 dAb monomer) DIQMTQSPSSLSASVGDRVTITCRASQNISRGLRWYQQKPGKAPKLLIYHASKLQSGVPSRFSGSGSGTDFTLTISSLQPEDFATYYCQQYKVFPGTFGQGTKVEIKR | 100 nM | –
5 | DOM14-70 (other, Anti-CD56 dAb monomer) DIQMTQSPSSLSASVGDRVTITCRASQEIGQWLNWYQQKPGKAPKLLIYWGSELQSGVPSRFSGSGSGTDFTLTISSLQPEDFATYYCQQVSRNPFTFGQGTKVEIKR | 500 to 800 nM | –
6 | DOM14-57 (other, Anti-CD56 dAb monomer) DIQMTQSPSSLSASVGDRVTITCRASQQIDDYLNWYQQKPGKAPKLLIYWTSLLQSGVPSRFSGSGSGTDFTLTISSLQPEDFATYYCQQSAHRPFTFGQGTKVEIKR | – | no binding

target: T2, CD38 immobilised on Biacore CM5 chip (UniProt P28907 43-300, limits assumed); assay: Biacore, CD38 immobilised
T2 construct: also called DOM11
Protocol: as §1
Affinity maturation libraries were created for the anti-CD38 dAbs DOM11-3 and DOM11-30 by error prone PCR. […] Initial screening was carried out by BIAcore (as described previously) and subsequently by FACS.

Row | Binder | Kd
7 | DOM11-30-2 (other) DIQMTQSPSSLSASVGDRVTITCRTSQKIENDLAWYQQKPGKAPKLLIYYTSILQSGVPSRFSGSGSGTDFTLTISSLQPEDFATYYCQQRRYVPATFGQGTKVEIKR | 62 to 76 nM
8 | DOM11-30-1 (other) DIQMTQSPSSLSASVGDRVTITCRASLKIENDLAWYQQKPGKAPKLLIYYTSILQSGVPSRFSGSGSGTDFTLTISSLQPEDFATYYCQQRRYAPATFGQGTKVEIKR | 19 nM
9 | DOM11-30-3 (other) DIQMTQSPSSLSASVGDRVTITCRASQKIENDLAWYQQKPGNAPKLLIYYTSILHSGVPSRFSGSGSGTDFTLTISSLQPEDFATYYCQQRRYVPATFGQGTKVEIKR | 86 to 93 nM
10 | DOM11-3-1 (other) DIQMTQSPSSLSASVGDRVTITCRASHNIDSRLSWYQQKPGKAPKLLIYRASVLQSGVPSRFRGSGSGTDFTLTISSLQPEDFATYYCQQWDMFPLSFGQGTKVEIKR | 62 nM
11 | DOM11-3-2 (other) DIQMTQSPSSLSASVGDRVTITCRASQNIDSRLSWYQQKPGKAPKLLIYRTSVLQSGVPSRFSGSGSGTDFTLTISSLQPEDFATYYCQQWDMFPLMFGQGTKVEIKR | 130 to 160 nM

target: T3, NCA on H647 cells (UniProt P40199 35-320, limits assumed); assay: FACS on H647 cells (CEA-/NCA+)
T3 construct: whole, on cells; Its identity is an inference
T3 sequence (looked up): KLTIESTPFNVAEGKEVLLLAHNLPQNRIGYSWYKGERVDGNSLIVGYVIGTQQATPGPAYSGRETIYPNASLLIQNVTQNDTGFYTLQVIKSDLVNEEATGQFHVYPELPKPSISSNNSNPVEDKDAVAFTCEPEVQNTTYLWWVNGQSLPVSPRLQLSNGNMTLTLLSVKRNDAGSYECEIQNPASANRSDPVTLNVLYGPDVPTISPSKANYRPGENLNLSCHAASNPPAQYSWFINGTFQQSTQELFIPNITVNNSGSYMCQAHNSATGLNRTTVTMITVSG
Protocol: (§2) All dAbs were analysed by FACS on antigen positive and negative cell lines using the following method.
(§3) The determination of cell binding by FACS was carried out as follows: cells were centrifuged at 250 g for 5 minutes and the growth medium was removed. The cells were resuspended in FACS incubation buffer at 4° C. at a density of 2×10⁶ cells/ml. The cells were blocked by incubating for 15 minutes at 4° C. in FACS incubation buffer. Fifty microliters of 2× stock of primary antibody (anti-CD38 FITC, anti-CD138 FITC or mIgG1 FITC conjugated isotype control (all BD Biosciences) was added; or dAb was added to cells in FACS incubation buffer and incubated for 30-60 minutes at 4° C. The cells were then washed once in FACS incubation buffer. One hundred microliters of secondary antibody (rabbit anti-Vk) was added to cells in FACS incubation buffer and incubated 30-60 minutes at 4° C. The cells were washed once in FACS incubation buffer. Then 100 ul of 1× tertiary antibody was added to the cells in FACS incubation buffer and incubated for 30-60 mins at 4° C. (for dAbs the tertiary antibody is anti-rabbit FITC (Sigma)). The cells were washed twice in FACS incubation buffer. The cell pellet was resuspend in 200 ul FACS incubation buffer+viable cell marker (BD Viaprobe). The cells were then analyzed by flow cytometry.

Row | Binder | binding result
12 | DOM13-57 (other, Anti-CEA dAb monomer) DIQMTQSPSSLSASVGDRVTITCRASQGIMYHLRWYQQKPGKAPRLLIYHGSTLQSGVPARFSGSGSGTDFTLTISSLQPEDFATYYCQQTWNAPLTFGQGTKVEIKR | no binding
13 | DOM13-93 (other, Anti-CEA dAb monomer) DIQMTQSPSSLSASVGDRVTITCRASQDIGNMLAWYQQKPGKAPKPLIYYASYLQSGVPSRFSGSGSGTDFTLTISSLQPEDFATYYCQQMRDYPVTFGQGTKVEIKR | no binding
14 | DOM13-95 (other, Anti-CEA dAb monomer) DIQMSQSPSSLSASVGDRVTITCRASQDIGNMLAWYQQKPGKAPKPLIYYASYLQSGVPSRFSGSGSGTDFTLTISSLQPEDFATYYCQQLGAKPHTFGQGTKVEIKR | no binding
15 | DOM13-58 (other, Anti-CEA dAb monomer) DIQMTQSPSSLSASVGDRVTITCRASQGIGNSLRWYQQKPGKAPKLLIYYSSHLQSGVPSRFSGSGSGTDFTLTISSLQPEDFATYYCQQIRTKPFTFGQGTKVEIKR | no binding
16 | DOM13-65 (other, Anti-CEA dAb monomer) DIQMTQSPSSLSASVGDRVTITCRASQSIGMLLSWYQQKPGKAPKLLIYAVSRLQSGVPSRFSGSGSGTDFTLTISSLQPEDYATYYCQQMQRPPITFGQGTKVEIKR | no binding
17 | DOM13-64 (other, Anti-CEA dAb monomer) DIQMTQSPSSLSASVGDRVTITCRASQSIGTLLNWYQQKPGKAPKLLIYASSRLQSGVPSRFSGSGSGTDFTLTISSLQPEDFATYYCQQMNRVPITFGQGTKVEIKR | no binding

target: T4, CD38 on cells (UniProt P28907 1-300); assay: FACS on RPMI cells (CD38+/138+)
T4 construct: whole, on cells; Endogenous CD38 on cell lines used in FACS or microscopy; also called DOM11; T10
Protocol: as §2, §3

Row | Binder | binding result
18 | DOM11-38 (other, Anti-CD38 dAb monomer) DIQVTQSPSSLSASVGDRVTITCRASQEISSCLNWYQQKPGKAPKLLIYCTSVLQSGVPSRFSGSGSGTDFTLTISSLQPEDFATYYCQQRFGNPLTFGQGTKVEIKR | binds
19 | DOM11-24 (other, Anti-CD38 dAb monomer) DIQMTQSPSSLSASVGDRVTITCRASQEIHDYLSWYQQKPGKAPKLLIYLSSRLQSGVPSRFSGSGSGTDFTLTISSLQPEDFATYYCQQYHKGPYTFGQGTKVEIKR | binds
20 | DOM11-37 (other, Anti-CD38 dAb monomer) DIQMTQSPSSLSAFVGDRVTITCRASQDIEGQLRWYQQKPGKAPKLLIYFGSLLQSGVPSRFSGSGSGTVYTLTISSLQPEDFATYYCQQSHLFPATFGQGTKVEIKR | binds
21 | DOM11-32 (other, Anti-CD38 dAb monomer) DIQMTQSPSSLSASVGDRVTITCRASQWIGDSLVWYQQKPGKAPKLLIYFGSILQSGVPSRFSGSGSGTDFTLTISSLQPEDFATYYCQQHKTSPSTFGQGTKVEIKR | binds
22 | DOM11-39 (other) DIQMTQSPSSLSASVGDRVTITCRASQPIDGNLRWYQQKPGKAPRLLIYFTSILQSGVPSRFSGSGSGTDFTLTISSLQPEDFATYYCQQHRHWPATFGQGTKVEIKR | binds

target: T5, CD38 and CD138 co-expressed on cells (CD38+/CD138+ double positive cells) (UniProt P28907 1-300; P18827 23-310); assay: FACS cell binding titration on OPM2 cells (CD38+/CD138+), arithmetic mean fluorescence. The table prints no unit; the unit is taken from the x axis 'log conc in nm' (nanomolar).
T5 construct: whole, on cells; Two separate membrane proteins on the same cell, not a complex; also called RPMI8226; OPM2
Protocol: as §3
Anti-CD38 and anti-CD138 affinity matured dAbs were paired to create dual specific ligands by cloning an anti-CD38 dAb and an anti-CD138 dAb into a dual expression vector. To determine if the increased affinity of the monomers was reflected in increased binding affinity of the dual specific ligand, a range of the affinity matured anti-CD38 dAbs were paired with the anti-CD138 dAb DOM12-45, a range of affinity matured anti-CD138 dAbs were paired with anti-CD38 dAbs, and a range of affinity matured anti-CD38 dAbs and affinity matured anti-CD138 dAbs were paired. All dual specific ligands were expressed in E. coli and purified using protein L agarose followed by Resource S cation exchange chromatography when required. The binding affinity of the dual specific ligands was assessed by FACS as described previously. In this study, a range of concentrations was used to allow determination of EC50.

Row | Binder | EC50
23 | DOM 11-3-1/DOM 12-45-2 (bispecific antibody, V domains shown) V domain 1: DIQMTQSPSSLSASVGDRVTITCRASHNIDSRLSWYQQKPGKAPKLLIYRASVLQSGVPSRFRGSGSGTDFTLTISSLQPEDFATYYCQQWDMFPLSFGQGTKVEIKR V domain 2: DIQMTQSPSSLSASVGDRVTITCRASQDIGGRLRWYQQKPGKAPKLLIYHGSRLDSGVPSRFSGSRSGADFTLTISSLQPEDFATYYCQQQWYRPYTFGQGTKVEIKR | 13.8 nM
